# In paper PMC2175287 (The Journal of Cell Biology, 2000):
# T1: Mtr10-Protein A (S. cerevisiae, UniProt Q99189 1-972)
# T1 sequence (looked up): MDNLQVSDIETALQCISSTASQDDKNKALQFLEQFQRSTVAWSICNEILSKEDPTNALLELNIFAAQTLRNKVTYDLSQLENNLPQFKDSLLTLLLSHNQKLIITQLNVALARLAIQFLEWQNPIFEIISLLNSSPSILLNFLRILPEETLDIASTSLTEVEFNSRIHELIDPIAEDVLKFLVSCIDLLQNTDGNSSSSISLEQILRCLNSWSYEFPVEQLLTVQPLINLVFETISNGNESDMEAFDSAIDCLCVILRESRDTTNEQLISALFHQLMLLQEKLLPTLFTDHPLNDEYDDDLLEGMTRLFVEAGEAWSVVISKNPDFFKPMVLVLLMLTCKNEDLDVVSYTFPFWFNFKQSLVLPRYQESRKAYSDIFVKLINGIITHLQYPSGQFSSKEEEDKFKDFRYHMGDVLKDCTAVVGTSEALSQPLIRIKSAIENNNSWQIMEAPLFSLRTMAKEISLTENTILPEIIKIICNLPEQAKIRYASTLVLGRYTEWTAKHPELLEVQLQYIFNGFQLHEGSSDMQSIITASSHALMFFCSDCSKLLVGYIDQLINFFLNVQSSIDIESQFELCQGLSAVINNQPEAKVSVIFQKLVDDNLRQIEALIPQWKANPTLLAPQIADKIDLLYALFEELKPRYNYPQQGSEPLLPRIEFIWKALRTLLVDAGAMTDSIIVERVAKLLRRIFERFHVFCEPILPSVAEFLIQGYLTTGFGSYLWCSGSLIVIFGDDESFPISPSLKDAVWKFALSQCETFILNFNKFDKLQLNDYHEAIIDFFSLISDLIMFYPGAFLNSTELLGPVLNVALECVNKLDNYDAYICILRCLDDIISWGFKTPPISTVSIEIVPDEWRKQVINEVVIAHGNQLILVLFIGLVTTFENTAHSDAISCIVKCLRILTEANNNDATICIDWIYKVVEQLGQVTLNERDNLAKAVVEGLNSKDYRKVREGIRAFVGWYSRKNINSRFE
# T2: in vitro-translated 35S-labeled Mtr10p (S. cerevisiae, UniProt Q99189 1-972, 35S-labeled)
# T2 sequence (looked up): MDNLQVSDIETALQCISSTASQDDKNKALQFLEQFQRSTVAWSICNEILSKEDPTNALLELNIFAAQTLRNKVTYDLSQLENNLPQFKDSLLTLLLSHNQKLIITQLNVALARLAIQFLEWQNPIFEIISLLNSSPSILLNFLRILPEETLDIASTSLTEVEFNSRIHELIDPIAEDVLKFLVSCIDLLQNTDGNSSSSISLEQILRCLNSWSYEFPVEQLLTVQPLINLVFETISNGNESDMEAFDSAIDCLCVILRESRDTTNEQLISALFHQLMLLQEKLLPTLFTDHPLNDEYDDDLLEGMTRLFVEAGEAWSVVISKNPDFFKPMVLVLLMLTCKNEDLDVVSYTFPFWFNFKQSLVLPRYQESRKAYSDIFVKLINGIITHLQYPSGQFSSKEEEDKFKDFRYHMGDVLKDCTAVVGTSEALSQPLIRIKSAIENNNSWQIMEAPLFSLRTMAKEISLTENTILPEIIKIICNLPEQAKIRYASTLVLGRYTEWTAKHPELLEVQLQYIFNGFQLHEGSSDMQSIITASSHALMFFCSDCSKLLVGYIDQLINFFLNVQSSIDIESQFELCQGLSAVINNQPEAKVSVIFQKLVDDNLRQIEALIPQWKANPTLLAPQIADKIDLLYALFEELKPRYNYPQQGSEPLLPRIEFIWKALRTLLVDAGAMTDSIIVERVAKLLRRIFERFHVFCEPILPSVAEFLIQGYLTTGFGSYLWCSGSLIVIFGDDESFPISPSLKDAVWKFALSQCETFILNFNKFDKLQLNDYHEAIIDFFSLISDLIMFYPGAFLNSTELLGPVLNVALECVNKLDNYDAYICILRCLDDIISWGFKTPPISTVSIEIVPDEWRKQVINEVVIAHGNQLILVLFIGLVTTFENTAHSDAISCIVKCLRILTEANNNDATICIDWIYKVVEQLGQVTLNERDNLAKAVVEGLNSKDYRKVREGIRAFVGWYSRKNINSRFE
# How the values were obtained:
# Mtr10p = Mtr10p (UniProt Q99189); assay: GST pull-down, S-tag blot, no extract; conditions: reference: mock-phosphorylated GST-Npl3p; sites S411
# Mtr10-Protein A = biological target: T1, Mtr10-Protein A; assay: co-IP
# [1] = biological target: T2, in vitro-translated 35S-labeled Mtr10p
molecule,measurement,setting,value
Npl3p (from UniProt Q01560) Sky1p-phosphorylated GST-Npl3p,binding against the reference,Mtr10p,stronger
"Npl3p (endogenous) (natural protein, S. cerevisiae (endogenous in yeast), UniProt Q01560 1-414, looked up) MSEAQETHVEQLPESVVDAPVEEQHQEPPQAPDAPQEPQVPQESAPQESAPQEPPAPQEQNDVPPPSNAPIYEGEESHSVQDYQEAHQHHQPPEPQPYYPPPPPGEHMHGRPPMHHRQEGELSNTRLFVRPFPLDVQESELNEIFGPFGPMKEVKILNGFAFVEFEEAESAAKAIEEVHGKSFANQPLEVVYSKLPAKRYRITMKNLPEGCSWQDLKDLARENSLETTFSSVNTRDFDGTGALEFPSEEILVEALERLNNIEFRGSVITVERDDNPPPIRRSNRGGFRGRGGFRGGFRGGFRGGFSRGGFGGPRGGFGGPRGGYGGYSRGGYGGYSRGGYGGSRGGYDSPRGGYDSPRGGYSRGGYGGPRNDYGPPRGSYGGSRGGYDGPRGDYGPPRDAYRTRDAPRERSPTR",fold reduction of co-precipitated Npl3p in sky1Δ against wild-type yeast,Mtr10-Protein A,3 fold
"GST-Npl3p phosphorylated by Sky1p (natural protein, S. cerevisiae, UniProt Q01560 1-414, looked up, phosphoserine at 411 (single site of Sky1p)) MSEAQETHVEQLPESVVDAPVEEQHQEPPQAPDAPQEPQVPQESAPQESAPQEPPAPQEQNDVPPPSNAPIYEGEESHSVQDYQEAHQHHQPPEPQPYYPPPPPGEHMHGRPPMHHRQEGELSNTRLFVRPFPLDVQESELNEIFGPFGPMKEVKILNGFAFVEFEEAESAAKAIEEVHGKSFANQPLEVVYSKLPAKRYRITMKNLPEGCSWQDLKDLARENSLETTFSSVNTRDFDGTGALEFPSEEILVEALERLNNIEFRGSVITVERDDNPPPIRRSNRGGFRGRGGFRGGFRGGFRGGFSRGGFGGPRGGFGGPRGGYGGYSRGGYGGYSRGGYGGSRGGYDSPRGGYDSPRGGYSRGGYGGPRNDYGPPRGSYGGSRGGYDGPRGDYGPPRDAYRTRDAPRERSPTR",Kd,[1],30 nM
